Here are results for one molecule from PMC4966956, “Analysis of the Bile Salt Export Pump (ABCB11) Interactome Employing Complementary Approaches” (PLoS ONE, 2016).

This assay has as its target T1, bile salt export pump (BSEP), purified, with C-terminal affinity tags (human, UniProt O95342 1-1321).
T1 construct: bile salt export pump (BSEP, ABCB11), human; construct pSGP18-2μ-BSEP; also called purified BSEP; pSGP18-2μ-BSEP; not shown: His tag (inferred from the removal of the tags on Ni-NTA), C-terminal, kept
Briefly: pull-down; Strep-tagged partner immobilised on Strep-Tactin resin, detergent-solubilised purified BSEP added for 30 min at 4°C; 50 mM sodium phosphate pH 7, 150 mM NaCl, 20% glycerol, 0.022% DDM; immunoblot against BSEP and Strep-tag II. The following applies: both partners purified.

T1 sequence (O95342 whole entry): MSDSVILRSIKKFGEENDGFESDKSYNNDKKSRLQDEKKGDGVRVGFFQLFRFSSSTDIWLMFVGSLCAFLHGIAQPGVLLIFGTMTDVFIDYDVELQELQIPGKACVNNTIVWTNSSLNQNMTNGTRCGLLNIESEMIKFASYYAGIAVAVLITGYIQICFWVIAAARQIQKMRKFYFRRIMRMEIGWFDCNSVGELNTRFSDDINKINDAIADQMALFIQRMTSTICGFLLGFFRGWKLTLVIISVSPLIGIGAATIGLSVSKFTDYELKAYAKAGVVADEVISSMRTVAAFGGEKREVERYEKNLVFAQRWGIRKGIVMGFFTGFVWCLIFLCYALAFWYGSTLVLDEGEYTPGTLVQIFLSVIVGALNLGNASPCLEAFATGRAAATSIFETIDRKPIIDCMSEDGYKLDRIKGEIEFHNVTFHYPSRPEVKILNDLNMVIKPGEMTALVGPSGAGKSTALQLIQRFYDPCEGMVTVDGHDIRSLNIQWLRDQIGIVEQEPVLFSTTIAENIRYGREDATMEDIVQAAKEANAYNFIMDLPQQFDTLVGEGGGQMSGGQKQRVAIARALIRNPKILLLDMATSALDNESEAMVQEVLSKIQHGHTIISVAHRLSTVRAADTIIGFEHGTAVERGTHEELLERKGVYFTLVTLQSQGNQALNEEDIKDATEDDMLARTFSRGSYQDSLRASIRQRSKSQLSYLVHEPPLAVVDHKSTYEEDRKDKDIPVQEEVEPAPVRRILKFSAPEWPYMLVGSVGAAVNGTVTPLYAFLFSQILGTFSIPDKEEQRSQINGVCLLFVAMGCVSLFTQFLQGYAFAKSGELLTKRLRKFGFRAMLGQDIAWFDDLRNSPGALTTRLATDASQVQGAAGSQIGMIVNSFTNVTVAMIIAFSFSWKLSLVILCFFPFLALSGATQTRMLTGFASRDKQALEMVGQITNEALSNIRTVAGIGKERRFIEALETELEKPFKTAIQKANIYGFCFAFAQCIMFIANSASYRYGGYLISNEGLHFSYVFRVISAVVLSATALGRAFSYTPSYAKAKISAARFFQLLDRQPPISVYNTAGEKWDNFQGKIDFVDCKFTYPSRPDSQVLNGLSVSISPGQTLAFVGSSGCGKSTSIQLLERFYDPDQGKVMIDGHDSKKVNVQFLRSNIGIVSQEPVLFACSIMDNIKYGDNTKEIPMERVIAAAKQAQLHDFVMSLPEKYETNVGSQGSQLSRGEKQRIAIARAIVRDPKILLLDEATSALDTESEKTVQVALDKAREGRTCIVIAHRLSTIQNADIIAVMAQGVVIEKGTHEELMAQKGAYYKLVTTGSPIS

B1: BACS_(77-690), Strep-tagged, purified (domain or fragment, human, UniProt Q9Y2P5-1 77-690, looked up)
chain: PARLPPGLRWLPADVIFLAKILHLGLKIRGCLSRQPPDTFVDAFERRARAQPGRALLVWTGPGAGSVTFGELDARACQAAWALKAELGDPASLCAGEPTALLVLASQAVPALCMWLGLAKLGCPTAWINPHGRGMPLAHSVLSSGARVLVVDPDLRESLEEILPKLQAENIRCFYLSHTSPTPGVGALGAALDAAPSHPVPADLRAGITWRSPALFIYTSGTTGLPKPAILTHERVLQMSKMLSLSGATADDVVYTVLPLYHVMGLVVGILGCLDLGATCVLAPKFSTSCFWDDCRQHGVTVILYVGELLRYLCNIPQQPEDRTHTVRLAMGNGLRADVWETFQQRFGPIRIWEVYGSTEGNMGLVNYVGRCGALGKMSCLLRMLSPFELVQFDMEAAEPVRDNQGFCIPVGLGEPGLLLTKVVSQQPFVGYRGPRELSERKLVRNVRQSGDVYYNTGDVLAMDREGFLYFRDRLGDTFRWKGENVSTHEVEGVLSQVDFLQQVNVYGVCVPGCEGKVGMAAVQLAPGQTFDGEKLYQHVRAWLPAYATPHFIRIQDAMEVTSTFKLMKTRLVREGFNVGIVVDPLFVLDNRAQSFRPLTAEMYQAVCEGTWRL
notes: bile acyl-CoA synthetase (BACS, SLC27A5), human, residues 77-690, without the N-terminal membrane anchor, in pET-51b(+); vector pET-51b(+); also called BACS lacking its N-terminal membrane anchor; bile acyl-CoA synthetase; source: E. coli Rosetta (DE3) pLysS, purified (Strep-Tactin)
Turning to B1, the binding result is “binds”.
